Blank lines part the entries; values can stand above or below the substance they belong to.
Target: Cy5-labeled proliferating cell nuclear antigen (PCNA) (human) (UniProt P12004)
Sequence (P12004 whole entry): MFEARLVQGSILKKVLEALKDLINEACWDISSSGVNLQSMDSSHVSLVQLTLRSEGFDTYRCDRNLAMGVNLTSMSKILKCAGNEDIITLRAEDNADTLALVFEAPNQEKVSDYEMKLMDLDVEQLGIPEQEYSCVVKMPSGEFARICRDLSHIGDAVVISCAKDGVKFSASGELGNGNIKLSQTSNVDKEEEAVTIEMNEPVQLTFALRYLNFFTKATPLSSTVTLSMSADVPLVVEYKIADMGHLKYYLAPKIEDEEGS

Sequence of ΔN-PAF15 (truncated PAF15 variant lacking residues 2-31) (Q15004 32-111, stated change not applied): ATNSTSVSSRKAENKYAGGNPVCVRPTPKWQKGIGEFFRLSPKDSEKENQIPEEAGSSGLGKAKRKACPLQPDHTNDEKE
Sequence of Doubly monoubiquitinated PAF15 (Di-UbPAF15) (Q15004 whole entry, looked up): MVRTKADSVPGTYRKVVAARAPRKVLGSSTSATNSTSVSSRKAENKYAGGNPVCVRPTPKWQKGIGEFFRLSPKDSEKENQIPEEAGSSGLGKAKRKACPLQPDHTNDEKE
Sequence of PAF15^50–77 peptide (Q15004 50-77): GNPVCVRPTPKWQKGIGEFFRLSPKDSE

diffusion constant of Cy5-PCNA on DNA with 1 μM Di-UbPAF15: 0.2 μm2/s
Substance: Doubly monoubiquitinated PAF15 (Di-UbPAF15) (from UniProt Q15004 2-111) (complex)

diffusion constant of Cy5-PCNA on DNA with 1 μM ΔN-PAF15: 0.15 μm2/s
Substance: ΔN-PAF15 (truncated PAF15 variant lacking residues 2-31) (from UniProt Q15004 32-111) (domain or fragment)

diffusion constant of Cy5-PCNA on DNA with 20 μM PAF15 50-77: 0.22 μm2/s
Substance: PAF15^50–77 peptide
